Laboratory results published in patent US20200317803A1, “ANTI-CD73, ANTI-PD-L1 ANTIBODIES AND CHEMOTHERAPY FOR TREATING TUMORS” (MEDIMMUNE, LLC, priority 2019, published 2020).
Entries after “also recorded” stand apart in the source; their conditions may differ.

How the values were obtained:
[1] = tested on: EGFRm NSCLC; conditions: ATLANTIC trial, comparison for EGFRm NSCLC; cited from earlier work
[2] = target: T1, CD73 (Homo sapiens, UniProt P21589); assay: pharmacokinetic/pharmacodynamic model and human dose prediction; conditions: determined from tumor suppression data in syngeneic mice
T1 construct: from tissue; host or cells: patients' serum, peripheral T cells and tumour biopsies
T1 sequence (P21589 27-549): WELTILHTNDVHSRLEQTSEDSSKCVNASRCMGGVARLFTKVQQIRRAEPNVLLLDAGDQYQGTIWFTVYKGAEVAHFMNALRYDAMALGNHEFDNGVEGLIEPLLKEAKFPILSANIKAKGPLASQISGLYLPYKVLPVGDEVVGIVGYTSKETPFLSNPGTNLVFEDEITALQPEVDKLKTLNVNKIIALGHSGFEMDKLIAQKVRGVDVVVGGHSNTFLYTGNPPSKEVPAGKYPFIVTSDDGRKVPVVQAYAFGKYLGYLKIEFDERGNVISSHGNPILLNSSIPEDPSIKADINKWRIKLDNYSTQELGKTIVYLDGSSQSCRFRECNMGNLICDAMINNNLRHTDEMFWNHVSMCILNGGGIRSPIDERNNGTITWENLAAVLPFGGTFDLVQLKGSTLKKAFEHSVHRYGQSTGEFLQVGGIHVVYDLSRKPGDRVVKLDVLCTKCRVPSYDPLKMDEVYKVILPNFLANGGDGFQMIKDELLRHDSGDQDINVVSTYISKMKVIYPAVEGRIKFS
Description: A two-compartment model with linear and target-mediated drug disposition clearance was used to adequately describe the MEDI9447 serum concentration profiles. This model was used to describe the monkey pharmacokinetic data and then resulting parameters were allometrically scaled to humans to predict doses using simulation. (See Example 2.)
FIGS. 6A and 6B show cynomolgus pharmacokinetic modeling and human dose prediction. Cynomolgus serum MEDI9447 concentration profiles (FIG. 6A) were described adequately all three different dose levels by a non-linear model shown schematically in (FIG. 5). Following allometric scaling of the pharmacokinetics parameters from this model, human serum concentration profiles were simulated (FIG. 6B). […] (See Example 2.)
Oleclumab dose selection was based on nonclinical data and clinical safety margins based on nonclinical safety data as described above for mice and monkeys. The pharmacologically driven starting dose level of 5 mg/kg oleclumab was anticipated to have 98% to 91% saturation of CD73 in the first dosing interval (peak and trough, respectively). […] The dose-escalation scheme in this study was designed to achieve higher and more sustained suppression of CD73 target, while maintaining adequate safety margins. […]

[3] = GLP 5-week repeat IV infusion toxicity study in cynomolgus monkeys; assay type: in vivo
Procedure: (§1) Mouse and cynomolgus monkey were selected as pharmacologically relevant species for evaluation of the toxicity of oleclumab. […] Systemic and local toxicities of oleclumab were evaluated in Good Laboratory Practice (GLP) toxicity studies in CD-1 mice (5-week, repeat intravenous [IV] bolus dose, once every 4 days, total 9 doses) at 0 mg/kg, 100 mg/kg or 200 mg/kg and cynomolgus monkeys (5-week, repeat IV 30-minute infusion dose, once weekly, total 5 doses) at 0 mg/kg, 30.5 mg/kg, 103.7 or 300.7 mg/kg.

[4] = tested on: human tissue panel
[5] = target: T1, CD73; assay: Phase 1 study, pharmacodynamics (soluble, T cell and tumor CD73); assay type: in vivo; conditions: for CD73 surface expression on peripheral T cells (MFI, percent CD73+ CD4 and CD8 cells): human
Procedure: (§2) Safety was assessed by the presence of adverse events (AEs), serious adverse events (SAEs), DLTs, and changes from baseline in laboratory parameters, vital signs, and electrocardiogram results. The endpoints for assessment of antitumor activity included objective response (OR), disease control (DC), duration of response (DoR), progression-free survival (PFS), and overall survival (OS). RECIST v1.1 was used for assessment of tumor response. Pharmacokinetic parameters included, but were not limited to, maximum observed concentration, area under the concentration time curve, clearance, and terminal half-life. The endpoints for assessment of immunogenicity of oleclumab and durvalumab included the number and percentage of subjects who developed detectable anti-drug antibodies and the endpoints for assessment of pharmacodynamic activity included assessment of target expression (e.g., CD73, PD-L1) in tumor biopsy specimens.
(§3) In the oleclumab monotherapy dose-escalation arm, sequential cohorts of 3 to 6 subjects each received 1 of 4 dose levels of oleclumab (5, 10, 20, or 40 mg/kg) via IV infusion Q2W unless the maximum tolerated dose (MTD) was reached before all dose-escalation cohorts were completed (FIG. 8). In the oleclumab/durvalumab combination therapy dose-escalation arm, sequential cohorts of 3 to 6 subjects each received 1 of 4 dose levels of oleclumab (5, 10, 20, or 40 mg/kg) and a single dose level of 10 mg/kg durvalumab via IV infusion Q2W, unless the MTD was reached before all dose-escalation cohorts were completed (FIG. 8). If the MTD of oleclumab was exceeded at the 5 mg/kg dose level in the monotherapy or combination therapy arm, a lower dose level of 2 mg/kg oleclumab was explored in that arm.

[6] = tested on: endogenous pathogen response (EBV, CMV); assay: single dose cynomolgus monkey study: endogenous pathogen response; assay type: in vivo, cynomolgus monkeys; conditions: single IV 1, 10 or 107.8 mg/kg
Procedure: (§4) Five male cynomolgus monkeys were administered a single IV bolus dose of oleclumab at a dose of 0 mg/kg, 1 mg/kg, 10 mg/kg or 107.8 mg/kg. Serum was collected prior to the first dose at 0.08, 0.5, 2, 8 and 24 hours and 2, 3, 5, 7, 10, 14, 21, 28 and 35 days post dosing.
The endogenous pathogen response was also investigated by endogenous pathogen verification. Endogenous pathogen antibodies were measured using chemiluminescent ELISA on days 1, 8, 14, 15, and 29 and endogenous pathogen T cell IFN-γ ELISPOT was measured on days −14 and 29. LCV (monkey homologue of EBV) was detectable at low levels in most cynomolgus monkeys (FIG. 4).

[7] = Phase 1 study, pharmacokinetics and immunogenicity of oleclumab; assay type: in vivo; conditions: human
Procedure: as §2, §3
The following PK data is based on a total of 97 subjects following treatment with oleclumab 5 to 40 mg/kg Q2W administered either as monotherapy (n=40) or in combination with durvalumab at 10 mg/kg Q2W (n=57). […] Serum exposures were similar when oleclumab was administered either alone or in combination with durvalumab.

[8] = tested on: exogenous antigen (KLH) response; assay: single dose cynomolgus monkey study: exogenous antigen (KLH) response; assay type: in vivo, cynomolgus monkeys; conditions: single IV 1, 10 or 107.8 mg/kg
Procedure: as §4
To determine immune modulation, the exogenous antigen (KLH) response was measured. The exogenous antigen (KLH) response was determined by first immunizing the monkeys on day 1 with adjuvant free KLH. KLH T cell-dependent antibody response (TDAR) was conducted on days 7, 8, 11, 15, 22, 29, and 36. Ex vivo KLH stimulation of PBMC IFN-γ and IL-2 ELISPOT was determined on days 1, 4, 8, 7, 15, and 22.

[9] = tested on: blood or peripheral blood mononuclear cell from healthy donors; assay: human in vitro cytokine release assays; assay type: cell-based; conditions: in solution or immobilized on plastic wells by dry-coating
Procedure: The ability of oleclumab (alone or in combination with durvalumab) to induce cytokine release was evaluated in human in vitro assays using blood or peripheral blood mononuclear cell from healthy donors.

[10] = GLP 5-week repeat IV bolus dose toxicity study in CD-1 mice; assay type: in vivo
Procedure: as §1

[11] = cynomolgus monkey, in vivo, 300.7 mg/kg

durvalumab: antibody that selectively binds PD-L1 and blocks the binding of PD-L1 to the PD-1 and CD80 receptors
ORR, durvalumab monotherapy [1]: 9.8%

oleclumab: human immunoglobulin G1 lambda mAb that selectively binds to and inhibits the ectonucleotidase activity of CD73; VL SEQ ID NO: 1, VH SEQ ID NO: 2
serum exposure target [2]: 52 µg/mL | effects on safety pharmacology endpoints (ECGs, blood pressure, behavioral examinations) ([3]; cynomolgus monkey, in vivo): no oleclumab-related effects | AUC0-168.5hr [3, 11]: 834,000 μg·hr/mL | Cmax [3, 11]: 11,000 μg/mL | no-observed-adverse-effect level (NOAEL) ([3]; cynomolgus monkeys, highest dose tested): 300.7 mg/kg/dose | tissue cross reactivity staining [4]: staining with oleclumab was observed in multiple cell types | CD73 staining tumor cells by IHC ([5]; 40 mg/kg dose, 20 days after treatment initiation): decrease in CD73 staining tumor cells | total CD4 and CD8 cells ([5]; human peripheral blood, across all doses): without a concomitant decrease | CD73 enzymatic activity in tumor microenvironment ([5]; human tumor staining): inhibited CD73 enzymatic activity | CD73 surface expression on peripheral T cells (MFI, percent CD73+ CD4 and CD8 cells) ([5]; across all doses): decreased CD73 on peripheral T cells | CD73 surface expression on peripheral T cells (MFI, percent CD73+ CD4 and CD8 cells) ([5]; across all doses, listed as Oleclumab): decreased CD73 surface expression | free serum soluble CD73 levels ([5]; majority of subjects at all times after the first dose, limit of detection): < 0.25 ng/mL | patients with decreased tumoral CD73 expression ([5]; oleclumab alone, patients who expressed >5% 2+/3+ CD73 at baseline): 5/9 | CD8+ TILs ([5]; samples with decreased tumoral CD73): increasing CD8+ TILs in all 5 samples | IgG titers to EBV gp125 and CMV gB [6]: did not vary with oleclumab treatment | T cell responses to EBV BZLF1 and inactivated human CMV [6]: did not vary consistently with oleclumab treatment | anti-drug antibodies (ADAs) [7]: No ADAs were detected | estimated effective half-life in the dosing duration [7]: ~13 days | serum concentration expected to saturate >99% CD73 [7]: above 40 μg/mL | serum exposures alone versus in combination with durvalumab ([7]; 5 to 40 mg/kg Q2W): similar | increase of Ctrough with dose ([7]; from oleclumab 5 to 10 mg/kg): more than proportional | increase of Ctrough with dose ([7]; from oleclumab 10 to 40 mg/kg): approximately dose proportional | PK linearity at lowest dose ([7]; oleclumab 5 mg/kg Q2W, monotherapy and combination cohorts): nonlinear PK | PK linearity at higher doses ([7]; oleclumab 10 mg/kg and higher Q2W): Linear PK | T cell responses to ex vivo KLH stimulation (IFN-γ, IL-2 ELISPOT of PBMC) [8]: did not vary with oleclumab treatment; also recorded: did not increase | anti-KLH IgM and IgG antibody responses (KLH TDAR) [8]: did not show dose-dependent increase; also recorded: did not enhance | responses to exogenous antigen (KLH) [8]: did not enhance responses | cytokine release [9]: did not induce cytokine release | no-observed-adverse-effect level (NOAEL) ([10]; CD-1 mice, highest dose tested): 200 mg/kg/dose | AUC0-96hr ([10]; mouse, in vivo, 200 mg/kg): 229,000 μg·hr/mL | Cmax ([10]; mouse, in vivo, 200 mg/kg): 6,200 μg/mL
